Test results reported in patent US20140105889A1 (published 2014).
Positions count from the first letter of the chain named. Names and notes keep the numbering of the source. One block for each binder: values may come before it.

Assays:
[1] = molecular target: T1, human FcRn (soluble human FcRn complexed with beta2-microglobulin) (human, UniProt P61769 21-119); test: SPR (Biacore), pH 7.0, 25 C, antibody captured by Protein L, human FcRn as analyte
T1 construct: also called hFcRn

human FcγRIIb [2] = molecular target: T2, human FcγRIIb (human, UniProt P31994 43-217, limits assumed); test: SPR (Biacore), antibody captured on Protein L, human FcgR as analyte, pH 7.4, 25 C; amount normalised to captured antibody
T2 construct: also called hFcgRIIb; FcγIIB
T2 sequence: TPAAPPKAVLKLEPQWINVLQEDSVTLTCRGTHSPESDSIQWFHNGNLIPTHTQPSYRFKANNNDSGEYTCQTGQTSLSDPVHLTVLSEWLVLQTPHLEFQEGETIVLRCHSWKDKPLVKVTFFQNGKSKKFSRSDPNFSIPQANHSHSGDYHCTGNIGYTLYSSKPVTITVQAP

human FcγRIIIa(F) [3] = molecular target: T3, human FcγRIIIa(F) (human, UniProt P08637 17-208, limits assumed); test: as above
T3 construct: also called hFcgRIIIa(F); allotype F158

human FcγRIIa(R) = molecular target: T4, human FcγRIIa(R) (human, UniProt P12318 36-217); test: SPR (Biacore), captured antibody, FcγR analyte; bound/captured amount vs control x100
T4 construct: also called FcgRIIaR; FcγRIIa type R
T4 chain: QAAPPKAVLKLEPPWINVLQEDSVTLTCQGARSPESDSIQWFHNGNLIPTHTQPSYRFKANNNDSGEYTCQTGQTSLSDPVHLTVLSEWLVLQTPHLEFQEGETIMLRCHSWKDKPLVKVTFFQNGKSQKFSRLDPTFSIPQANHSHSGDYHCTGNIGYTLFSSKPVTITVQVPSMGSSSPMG

human FcγRIIb [4] = molecular target: T5, human FcγRIIb (human, UniProt P31994 43-217, limits assumed); test: ratio of this variant's SPR KD for FcγRIIaH to its KD for FcγRIIb
T5 construct: also called FcγIIB; hFcgRIIb
T5 sequence: T2 sequence

human FcγRIIb [5] = molecular target: T5, human FcγRIIb; test: ratio of this variant's SPR KD for FcγRIIaR to its KD for FcγRIIb
human FcγRIIa type R [6] = molecular target: T6, human FcγRIIa type R (human, UniProt P12318 36-217); test: SPR KD of this variant's stronger FcγRIIa allotype binding divided by that of parent IL6R-B3/IL6R-L
T6 construct: also called FcγRIIaR; FcγRIIa(R)
T6 chain: T4 chain

human FcγRIIb [7] = molecular target: T7, human FcγRIIb (human, UniProt P31994 43-217, limits assumed); test: SPR (Biacore) KD; ratio against the KD for FcγRIIaH
T7 construct: also called hFcgRIIb
T7 sequence: T2 sequence

human FcγRIIb [8] = molecular target: T7, human FcγRIIb; test: SPR (Biacore) KD; ratio against the KD for FcγRIIaR
human FcγRIIa(H) = molecular target: T8, human FcγRIIa(H) (human, UniProt P12318 36-217); test: SPR (Biacore T100), antibody captured by Protein A, FcγR at 2 µmol/L, 25 C
T8 construct: also called hFcgRIIa(H); FcγRIIa type H
T8 sequence: T4 chain with R133H

human FcγRIIIa(F) [9] = molecular target: T9, human FcγRIIIa(F) (human, UniProt P08637 17-208, limits assumed); test: as above
T9 construct: also called hFcgRIIIa(F)

human FcγRIIa type R [10] = molecular target: T6, human FcγRIIa type R; test: SPR (Biacore), captured antibody, FcγR as analyte, 25 C
human FcγRIIb [11] = molecular target: T5, human FcγRIIb; test: SPR KD for FcγRIIb of parent IL6R-B3/IL6R-L divided by that of this variant
[12] = molecular target: T10, human FcγRIIa type R (allotype R131) (human, UniProt P12318 36-217); test: SPR (Biacore), antibody captured on the chip, FcγR as analyte
T10 construct: also called FcγRIIaR; FcγRIIa(R)
T10 chain: T4 chain

[13] = molecular target: T11, human FcγRIIa type H (allotype H131) (human, UniProt P12318 36-217); test: as above
T11 construct: also called FcγRIIaH; FcγRIIa(H)
T11 sequence: T4 chain with R133H

[14] = molecular target: T12, human FcγRIIIa type V (allotype V158) (human, UniProt P08637 17-208, limits assumed); test: as above
T12 construct: the assay used allotype V158; also called FcγRIIIaV; FcγRIIIa(V)

human FcγRIIb [15] = molecular target: T13, human FcγRIIb (human, UniProt P31994 43-217); test: SPR (Biacore); KD of parent IL6R-B3/IL6R-L for FcγRIIb divided by KD of the variant for FcγRIIb
T13 construct: also called FcγIIB
T13 sequence: T2 sequence

human FcRn = molecular target: T14, human FcRn (human); test: SPR (Biacore), antibody captured by Protein L, human FcRn as analyte, pH 7.0
T14 construct: Soluble human FcRn complexed with β2-microglobulin; also called hFcRn; soluble human FcRn complexed with β2-microglobulin

T12 sequence (P08637 other isoform, or with tags, fused parts or gaps limits assumed): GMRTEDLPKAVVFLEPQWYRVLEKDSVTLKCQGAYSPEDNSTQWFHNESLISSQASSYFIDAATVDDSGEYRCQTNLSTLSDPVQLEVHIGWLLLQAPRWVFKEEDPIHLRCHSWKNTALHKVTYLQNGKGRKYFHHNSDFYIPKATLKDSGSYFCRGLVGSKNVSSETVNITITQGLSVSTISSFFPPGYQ

B5: GpH7-B3 G237P/GpL16-k0 (antibody, human IgG1)
heavy: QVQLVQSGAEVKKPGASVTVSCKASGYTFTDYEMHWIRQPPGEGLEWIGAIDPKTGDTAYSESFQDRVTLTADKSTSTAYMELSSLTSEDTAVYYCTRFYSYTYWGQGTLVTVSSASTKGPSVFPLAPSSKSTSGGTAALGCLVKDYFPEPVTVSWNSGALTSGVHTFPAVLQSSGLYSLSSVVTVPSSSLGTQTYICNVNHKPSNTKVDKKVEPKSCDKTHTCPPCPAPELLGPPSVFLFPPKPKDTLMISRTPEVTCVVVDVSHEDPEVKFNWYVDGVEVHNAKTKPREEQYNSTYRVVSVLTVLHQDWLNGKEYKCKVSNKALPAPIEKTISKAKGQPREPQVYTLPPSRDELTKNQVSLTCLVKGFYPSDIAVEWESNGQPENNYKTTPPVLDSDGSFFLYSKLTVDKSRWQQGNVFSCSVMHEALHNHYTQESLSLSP
light: DIVMTQSPLSLPVTPGEPASISCQASESLVHSNRNTYLHWYLQKPGQSPQLLIYKVSNRFSGVPDRFSGSGSGTDFTLKISRVEAEDVGVYYCSQNTHVPPTFGQGTKVEIE
notes: B3 variant of anti-glypican-3 IgG1; substitution in EU numbering; also called B3 variant
relative binding activity (human FcγRIIa(R)): 8 % of GpH7-B3/GpL16-k0

B6: GpH7-B3 S239R/GpL16-k0 (antibody, human IgG1)
heavy: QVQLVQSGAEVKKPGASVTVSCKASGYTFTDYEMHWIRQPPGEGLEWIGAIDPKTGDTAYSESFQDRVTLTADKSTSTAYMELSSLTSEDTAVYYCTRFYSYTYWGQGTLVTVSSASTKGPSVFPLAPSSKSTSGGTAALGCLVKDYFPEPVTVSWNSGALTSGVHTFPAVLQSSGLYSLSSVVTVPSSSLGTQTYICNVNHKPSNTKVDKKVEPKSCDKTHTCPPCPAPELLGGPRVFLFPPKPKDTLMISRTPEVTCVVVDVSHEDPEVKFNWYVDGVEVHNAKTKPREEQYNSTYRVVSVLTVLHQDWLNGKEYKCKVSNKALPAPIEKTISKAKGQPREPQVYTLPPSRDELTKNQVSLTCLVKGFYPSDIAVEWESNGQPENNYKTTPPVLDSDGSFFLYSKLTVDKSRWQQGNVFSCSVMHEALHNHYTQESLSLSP
light: B5 light
notes: as for B5
relative binding activity (human FcγRIIa(R)): 8 % of GpH7-B3/GpL16-k0

B7: IL6R-BP089/IL6R-L (antibody, human IgG1)
heavy: QVQLQESGPGLVKPSETLSLTCAVSGHSISHDHAWSWVRQPPGEGLEWIGFISYSGITNYNPSLQGRVTISRDNSKNTLYLQMNSLRAEDTAVYYCARSLARTTAMDYWGEGTLVTVSSASTKGPSVFPLAPSSKSTSGGTAALGCLVKDYFPEPVTVSWNSGALTSGVHTFPAVLQSSGLYSLSSVVTVPSSSLGTQTYICNVNHKPSNTKVDKKVEPKSCDKTHTCPPCPAPEYLGGDSVFLFPPKPKDTLMISRTPEVTCVVVDVSHEDPEVKFNWYVDGVEVHNAKTKPREEQYNSTYRVVSVLTVLHQDWLNGKEYKCKVSNAALPKPIEKTISKAKGQPREPQVYTLPPSRDELTKNQVSLTCLVKGFYPSDIAVEWESNGQPENNYKTTPPVLDSDGSFFLYSKLTVDKSRWQQGNVFSCSVMHEALHNHYTQESLSLSP
light: DIQMTQSPSSLSASVGDRVTITCRASQDISSYLNWYQQKPGKAPKLLIYYTSRLHSGVPSRFSGSGSGTDFTFTISSLQPEDIATYYCQQGNTLPYTFGQGTKVEIK
notes: copies: 2 + 2
KD (IIaH)/KD (IIb) (human FcγRIIb [4]): 51.9
KD (IIaR)/KD (IIb) (human FcγRIIb [5]): 16.6
KD value for the stronger of the FcγRIIaR- and FcγRIIaH-binding activities of the variant/that of the parent polypeptide (human FcγRIIa type R [6]): 6.3

B8: IL6R-F11/IL6R-L (antibody, human IgG1)
heavy: not shown
light: B7 light
notes: copies: 2 + 2
KD value for FcγRIIaH/KD value for FcγRIIb (human FcγRIIb [7]): 0.7
KD value for FcγRIIaR/KD value for FcγRIIb (human FcγRIIb [8]): 0.7

B10: IL6R-BP144/IL6R-L (antibody, human IgG1)
heavy: B7 heavy with Y236L, G239D, K332A
light: B7 light
notes: copies: 2 + 2
Kd (human FcγRIIa type R [10]): 2900 nM
KD (IIaH)/KD (IIb) (human FcγRIIb [4]): 45.8
KD (IIaR)/KD (IIb) (human FcγRIIb [5]): 8.7
KD(IIb) of the parent polypeptide/KD(IIb) of the altered polypeptide (human FcγRIIb [11]): 5.9
KD value for the stronger of the FcγRIIaR- and FcγRIIaH-binding activities of the variant/that of the parent polypeptide (human FcγRIIa type R [6]): 6.9

B11: IL6R-B3/IL6R-L (antibody, human IgG1)
heavy: not shown
light: B7 light
notes: copies: 2 + 2
KD value for FcγRIIaH/KD value for FcγRIIb (human FcγRIIb [7]): 0.2
KD value for FcγRIIaR/KD value for FcγRIIb (human FcγRIIb [8]): 0.3

Second part, the binder after the results:

Kd [1]: 53 nM
B1: IgG1-F1031 (antibody, name in EU numbering)
heavy: QVQLQESGPGLVKPSETLSLTCAVSGHSISHDHAWSWVRQPPGEGLEWIGFISYSGITNYNPSLQGRVTISRDNSKNTLYLQMNSLRAEDTAVYYCARSLARTTAMDYWGEGTLVTVSSASTKGPSVFPLAPSSKSTSGGTAALGCLVKDYFPEPVTVSWNSGALTSGVHTFPAVLQSSGLYSLSSVVTVPSSSLGTQTYICNVNHKPSNTKVDKKVEPKSCDKTHTCPPCPAPELLAGPDVFLFPPKPKDVLYISRTPEVTCVVVDVSHEDPEVKFNWYVDGVEVHNAKTKPREEQYNSTYRVVSVLQVLHADWLNGKEYKCKVSNKALPAPEEKTISKAKGQPREPQVYTLPPSRDELTKNQVSLTCLVKGFYPSDIAVEWESNGQPENNYKTTPPVLDSDGSFFLYSKLTVDKSRWQQGNVFSCSVMHEALHYHVTQKSLSLSP
light: not shown

Kd [1]: 130 nM
B2: IgG1-F1039 (antibody, name in EU numbering)
heavy: B1 heavy with L237K, A238G, P240D, D241K, V252T, Q309T, A313Q, E334I
light: not shown

BINDING AMOUNT (RU) (human FcγRIIb [2]): 5.46 RU
BINDING AMOUNT (RU) (human FcγRIIIa(F) [3]): 9.51 RU
B3: antibody containing VH3-IgG1-F1326 for the heavy chain and L(WT)-CK for the light chain (antibody)
heavy: B1 heavy with L236A, L237A, A238G, D241S, V310P, E334I
light: not shown

BINDING AMOUNT (RU) (human FcγRIIb [2]): 3.85 RU
BINDING AMOUNT (RU) (human FcγRIIIa(F) [3]): 5.83 RU
B4: antibody containing VH3-IgG1-F1324 for the heavy chain and L(WT)-CK for the light chain (antibody)
heavy: B1 heavy with L236A, L237A, A238G, D241S, V252T, Q309T, A313Q, E334I
light: not shown

binding (RU) (human FcγRIIa(H)): ~2.5 RU
binding (RU) (human FcγRIIIa(F) [9]): ~2.5 RU
B9: IgG1-v1 (antibody)
heavy: not shown
light: B7 light
notes: copies: 2 + 2

binding (RU) (human FcγRIIa(H)): ~10 RU
binding (RU) (human FcγRIIIa(F) [9]): ~5 RU
B12: IgG1-v2 (antibody)
heavy: not shown
light: B7 light
notes: copies: 2 + 2

Kd [12]: 680 nM
Kd [13]: 7300 nM
Kd [14]: 36000 nM
KD(IIb) of the parent polypeptide/KD(IIb) of the altered polypeptide (human FcγRIIb [15]): 44.5
B13: IL6R-BP185/IL6R-L (antibody, human IgG1)
heavy: B7 heavy with E235D, G239D, P273G
light: B7 light
notes: Anti-human IL-6 receptor human IgG1 variant; copies: 2 + 2

Kd (human FcRn): 74.9 nM
B14: IgG1-F1364 (antibody, name in EU numbering)
heavy: QVQLQESGPGLVKPSETLSLTCAVSGHSISHDHAWSWVRQPPGEGLEWIGFISYSGITNYNPSLQGRVTISRDNSKNTLYLQMNSLRAEDTAVYYCARSLARTTAMDYWGEGTLVTVSSASTKGPSVFPLAPSSKSTSGGTAALGCLVKDYFPEPVTVSWNSGALTSGVHTFPAVLQSSGLYSLSSVVTVPSSSLGTQTYICNVNHKPSNTKVDKKVEPKSCDKTHTCPPCPAPELRGGPKVFLFPPKPKDTLYISREPEVTCVVVDVSHEDPEVKFNWYVDGVEVHNAKTKPREEQYNSTYRVVSVLTVLHQDWLNGKEYKCKVSNKALPAPIEKTISKAKGQPREPQVYTLPPSRDELTKNQVSLTCLVKGFYPSDIAVEWESNGQPENNYKTTPPVLDSDGSFFLYSKLTVDKSRWQQGNVFSCSVMHEALHYHFTKKELSLSP
light: not shown
notes: light chain L(WT)-CK; copies: 2 + 2

Kd (human FcRn): 76 nM
B15: IgG1-F1369 (antibody, name in EU numbering)
heavy: B14 heavy with S256T, K440R
light: not shown
notes: as for B14
